Measurements published in article PMC12123718 (Respiratory Research, 2025).

Molecular target: recombinant human PKM2 (rhPKM2) (human, UniProt P14618 1-531)
Test: SPR

Sequence of recombinant human PKM2 (rhPKM2) (P14618 whole entry): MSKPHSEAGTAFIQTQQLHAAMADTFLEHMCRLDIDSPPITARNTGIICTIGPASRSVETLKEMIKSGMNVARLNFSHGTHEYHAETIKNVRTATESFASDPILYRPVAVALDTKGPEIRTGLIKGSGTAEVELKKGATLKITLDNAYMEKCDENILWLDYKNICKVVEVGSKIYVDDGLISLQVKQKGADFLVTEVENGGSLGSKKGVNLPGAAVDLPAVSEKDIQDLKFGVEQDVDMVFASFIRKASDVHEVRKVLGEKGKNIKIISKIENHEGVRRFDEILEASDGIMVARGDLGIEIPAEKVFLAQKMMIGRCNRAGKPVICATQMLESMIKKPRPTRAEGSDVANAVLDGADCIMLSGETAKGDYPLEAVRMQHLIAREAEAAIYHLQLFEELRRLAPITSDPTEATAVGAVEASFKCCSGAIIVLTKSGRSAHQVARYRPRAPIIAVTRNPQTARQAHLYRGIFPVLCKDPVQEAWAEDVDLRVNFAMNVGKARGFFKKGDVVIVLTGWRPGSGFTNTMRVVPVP

B1: recombinant hPFN2 (rhPFN2) (natural protein, human, UniProt P35080 1-140, looked up)
chain: MAGWQSYVDNLMCDGCCQEAAIVGYCDAKYVWAATAGGVFQSITPIEIDMIVGKDREGFFTNGLTLGAKKCSVIRDSLYVDGDCTMDIRTKSQGGEPTYNVAVGRAGRVLVFVMGKEGVHGGGLNKKAYSMAKYLRDSGF
  Kd: 50.6 nM
